One molecule from PMC3097263 can be followed below.

In this data set the target is MqsA (UniProt Q46864 1-131). Nature of the data set: EMSA. In general terms: A gel shift assay detects complexes by their altered migration in electrophoresis.
Chain of MqsA (Q46864 whole entry): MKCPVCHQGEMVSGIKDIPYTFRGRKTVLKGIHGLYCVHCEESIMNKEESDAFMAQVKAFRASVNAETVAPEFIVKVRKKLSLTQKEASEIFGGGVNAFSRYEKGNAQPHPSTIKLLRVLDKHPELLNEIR

B1: PrpoS 25-mer (dsDNA)
DNA 1: TGGTCAGACCTTGCAGGTGGGTAAT
DNA 2: ATTACCCACCTGCAAGGTCTGACCA
Regarding B1, the binding result is on record as “binds”.
